Patent publication US20140079691A1
Values belong to the binder of their own block, whether it stands above or below them.

How the values were obtained:
Assay in all cases: method not stated in Example 7
β-NGF = molecular target: β-NGF
IL-17A = molecular target: IL-17A
[1] = molecular target: C345C subunit of complement protein C5
Sequence of C345C subunit of complement protein C5 (P01031 1532-1676): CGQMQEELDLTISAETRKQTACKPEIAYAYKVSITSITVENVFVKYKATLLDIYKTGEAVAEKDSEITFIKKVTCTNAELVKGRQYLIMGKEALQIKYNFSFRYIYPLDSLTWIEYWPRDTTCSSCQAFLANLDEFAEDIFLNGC

Sequence of IL-17A (Q16552 24-155): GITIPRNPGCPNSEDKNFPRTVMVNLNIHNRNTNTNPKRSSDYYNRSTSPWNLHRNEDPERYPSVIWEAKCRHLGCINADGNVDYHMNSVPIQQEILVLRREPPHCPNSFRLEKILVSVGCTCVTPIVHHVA
Sequence of β-NGF (P01138 122-241): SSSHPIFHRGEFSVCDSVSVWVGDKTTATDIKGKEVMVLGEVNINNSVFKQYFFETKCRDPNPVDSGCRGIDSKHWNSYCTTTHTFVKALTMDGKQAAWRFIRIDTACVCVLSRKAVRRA

Kd (β-NGF): 12 nM | fold loss in β-NGF binding affinity (against the parental antibody, APE579 in Table 3) (β-NGF): 2 fold
B1: APE1661 (antibody, human IgG1, kappa, V domains shown)
VH: EVQLVESGGGLVQPGGSLILSCAASGFTFTTYNMNWVRQAPGKGLEWVCVISTGGSNTYYADSVKGRFTCSRDNSKNTLYLQMNSLRAEDTAVYYCARDGGYSSSTLYAMDAWGAGTTVTVSS
VL: DVVLTQSPLSLAVLLGQPASISCRASKNIYNALAWYQQRPGQSPRLLIYNTDRLHTGVPDRFSGSGSGTDFTLKISRVEAEDVGVYFCQHYFDYPRTFGGGTKLEIKR

Kd (IL-17A): 0.21 nM | fold improvement in antigen binding affinity (against the parental antibody, APE508 in Table 3) (IL-17A): 1.6 fold
B2: APE1662 (antibody, human IgG1, kappa, V domains shown)
VH: EVQLVESGGGLVQPGGSLILSCAASGFTFSNHWMNWVRQAPGKGLEWVCAAINEDGSEKYYVGSVKVRFTCSRDNSKNTLYLQMNSLRAEDTAVYYCARDYYDILTDYYIHYWYFDLWGAGTTVTVSS
VL: DVVLTQSPLSLAVLLGQPASISCRASQSVSSSYLAWYQQRPGQSPRLLIYGASSRATGVPDRFSGSGSGTDFTLKISRVEAEDVGVYFCQQYGSSPLTFGGGTKLEIKR

Kd [1]: 5 nM
B3: APE1775 (antibody, human IgG1, kappa, V domains shown)
VH: EVQLVESGGGLVQPGGSLILSCAASGFTFSSYAMTWVRQAPGKGLEWVCAISGSGSTYYADSVKGRFTCSRDNSKNTLYLQMNSLRAEDTAVYYCARRGLRYNYFDYWGAGTTVTVSS
VL: DVVLTQSPLSLAVLLGQPASISCRASQSVSSSYLAWYQQRPGQSPRLLIYGASSRATGVPDRFSGSGSGTDFTLKISRVEAEDVGVYFCQQYGRSLEYTFGGGTKLEIKR
